Broadly, the EC50 is the concentration needed to bring the measured effect to its halfway point. Lower therefore signals a more potent agent. By Kd is commonly meant a measure of binding affinity in units of concentration.

Like-named read-outs stand apart in the source and are kept apart here.

In assay [1] the target is T1, human BDCA-2 on cells (Jurkat-hBDCA-2 cells; human pDCs; human PBMCs) (human, UniProt Q8WTT0 1-213).
T1 construct: whole, on cells; also called CD303; CLEC4C
T1 sequence (looked up): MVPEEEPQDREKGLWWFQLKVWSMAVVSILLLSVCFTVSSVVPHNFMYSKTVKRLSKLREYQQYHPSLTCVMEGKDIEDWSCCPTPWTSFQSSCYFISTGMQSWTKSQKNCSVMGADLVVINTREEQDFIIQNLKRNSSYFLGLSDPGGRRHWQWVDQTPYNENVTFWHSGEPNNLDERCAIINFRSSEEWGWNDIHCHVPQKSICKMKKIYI
Description: flow cytometry on Jurkat-hBDCA-2 cells. Background: Flow cytometry measures light scatter and fluorescence of single cells or particles in a stream.

In assay [2] the target is T1, human BDCA-2 on cells (Jurkat-hBDCA-2 …). The assay can be described thus: cell-based or functional assay.
The target is the same in assay [3]. Description: cell-based or functional assay. This is another data set of the same source.
The target of assay [4] is T2, Human BDCA-2 protein (soluble, Octet analyte) (human, UniProt Q8WTT0 45-213, limits assumed).
T2 construct: Soluble protein used as analyte in BLI
T2 sequence (looked up): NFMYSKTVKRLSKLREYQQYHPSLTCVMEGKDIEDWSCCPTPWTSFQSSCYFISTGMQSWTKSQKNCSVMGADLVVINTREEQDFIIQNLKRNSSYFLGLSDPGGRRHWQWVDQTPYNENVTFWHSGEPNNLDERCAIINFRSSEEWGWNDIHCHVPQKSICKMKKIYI
Description: BLI (Octet Red96e), antibody on anti-human IgG sensor, human BDCA-2 protein in solution. (BLI is a label-free optical method that tracks binding on a fibre tip over time.)

Assay [5] concerns the target T1, human BDCA-2 on cells (Jurkat-hBDCA-2 …). Description: cell-based or functional assay. This is another data set of the same source.
For assay [6] the target is unchanged. Description: cell-based or functional assay. This is another data set of the same source.
For assay [7] the target is unchanged. Description: flow cytometry on Jurkat-hBDCA-2 cells. The source holds these as a separate data set.
Assay [8] has as its target T2, Human BDCA-2 protein (soluble, Octet …). The assay can be described thus: BLI (Octet Red96e), antibody on anti-human IgG sensor, human BDCA-2 protein in solution. This is another data set of the same source.
For assay [9], the target named is T1, human BDCA-2 on cells (Jurkat-hBDCA-2 …). Description: cell-based or functional assay. The source holds these as a separate data set.
Assay [10] shares this target. Description: flow cytometry on Jurkat-hBDCA-2 cells. This is another data set of the same source.
For assay [11] the target is unchanged. The assay can be described thus: cell-based or functional assay. The source holds these as a separate data set.
The target is the same in assay [12]. The assay can be described thus: cell-based or functional assay. The source holds these as a separate data set.
For assay [13] the target is unchanged. Description: flow cytometry on sorted human pDCs.

B1: BIIB059 (antibody)
chain 1: not shown
chain 2: DIQLTQSPSSLSASVGDRVTITCKASQSVDYDGDSYMNWYQQKPGKAPKLLIYAASTLESGVPSRFSGSGSGTDFTLTISSLQPEDFATYYCQQANEDPRTFGQGTKVEIKRTVAAPSVFIFPPSDEQLKSGTASVVCLLNNFYPREAKVQWKVDNALQSGNSQESVTEQDSKDSTYSLSSTLTLSKADYEKHKVYACEVTHQGLSSPVTKSFNRGEC
On to B1, for which the EC50 amounted to 0.175 µg/mL in [1], 0.0704 µg/mL in assay [7], 0.224 µg/mL in assay [10] and 0.281 µg/mL in [13]. The “EC50, inhibition of CpGA-induced type I interferon (IFNα) production in human PBMC cells” value came out at 2.1 ng/mL in assay [2], 2.5 ng/mL in [5], 3.1 ng/mL in assay [6] and 13.2 ng/mL in assay [9]. In [3], the “EC50, inhibition of immune complex-induced type I interferon (IFNα) production by human pDC cells” value was 2.1 ng/mL. Besides, the Kd came to 1.9 nM in assay [4] and 3.9 nM in assay [8]. For the same molecule, the entries for the “EC50, inhibition of immune complex-induced type I interferon (IFNα) in human pDC cells” value in assay [11] and in assay [12] were 33.4 ng/mL and 6.1 ng/mL, respectively.
